Experimental data reported in patent US20110159022A1, “Immunogenic Peptides Derived from the Midkine Protein, as an Anticancer Vaccine” (priority 2008, published 2011).
Positions count from the first letter of the chain named.

Experiments:
[1] = biological target: HLA-DR1 (DRB1*0101) (Homo sapiens, UniProt P01903+P01911, A100R/D57E/F55L/F60I/F76Y/I96L/L162R/M171V/P40L/Q125E/R42F/V115G/Y59C); assay type: binding; details: ratio of IC50 of competitor peptide to IC50 of reference peptide; mean of at least two independent experiments; less than 100 = active
[2] = biological target: HLA-DR3 (DRB1*0301) (Homo sapiens, UniProt P01903+P01911, A100K/A102G/A103R/A169T/F55Y/I96L/K41T/L162R/M171V/P40S/Q125H/Q178H/Q39Y/R42S/S66N/T106N/T262R/W38E/Y61H); assay: HLA II/peptide competition binding assay, DR3; details: ratio of IC50 of competitor peptide to IC50 of reference peptide; mean of at least two independent experiments; less than 100 = active
[3] = biological target: HLA-DR4 (DRB1*0401) (Homo sapiens, UniProt P01903+P01911, A100K/A169T/F76Y/I96L/K127E/L162R/M171V/N62H/P40V/Q125Y/R42H/S133A/S149N/S66Y/V115G/V209L/W38E); assay: HLA II/peptide competition binding assay, DR4; details: ratio of IC50 of competitor peptide to IC50 of reference peptide; mean of at least two independent experiments; less than 100 = active
[4] = biological target: HLA-DR7 (DRB1*0701) (Homo sapiens, UniProt P01903+P01911, A100R/A102G/A103Q/D57E/D86V/E43K/F76Y/K127E/L162R/M171V/P40G/Q125H/Q99D/R33Q/R42Y/R54Q/S133A/S66F/T210M/V115G/Y107V/Y59L/Y89S); assay: HLA II/peptide competition binding assay, DR7; details: ratio of IC50 of competitor peptide to IC50 of reference peptide; mean of at least two independent experiments; less than 100 = active
[5] = biological target: HLA-DR13 (DRB1*1301) (Homo sapiens, UniProt P01903+P01911, A100E/A169T/K41T/L162R/M171V/P40S/Q125H/Q178H/Q39Y/Q99D/R42S/S66N/T262R/W38E/Y61H); assay: HLA II/peptide competition binding assay, DR13; details: ratio of IC50 of competitor peptide to IC50 of reference peptide; mean of at least two independent experiments; less than 100 = active
[6] = biological target: HLA-DR15 (DRB1*1501) (Homo sapiens, UniProt P01903+P01911); assay: HLA II/peptide competition binding assay, DR15; details: ratio of IC50 of competitor peptide to IC50 of reference peptide; mean of at least two independent experiments; less than 100 = active
[7] = biological target: HLA-DRB3 (DRB3*0101) (Homo sapiens, UniProt P01903+P79483); assay: HLA II/peptide competition binding assay, DRB3; details: ratio of IC50 of competitor peptide to IC50 of reference peptide; mean of at least two independent experiments; less than 100 = active
[8] = biological target: HLA-DRB4 (DRB4*0101) (Homo sapiens, UniProt P01903+P13762, G164S); assay: HLA II/peptide competition binding assay, DRB4; details: ratio of IC50 of competitor peptide to IC50 of reference peptide; mean of at least two independent experiments; less than 100 = active
[9] = biological target: HLA-DRB5 (DRB5*0101) (Homo sapiens, UniProt P01903+Q30154); assay: HLA II/peptide competition binding assay, DRB5; details: ratio of IC50 of competitor peptide to IC50 of reference peptide; mean of at least two independent experiments; less than 100 = active
[10] = biological target: T1, HLA-DP401 (DPB1*0401) (Homo sapiens, UniProt P04440+P20036); assay type: binding; details: ratio of IC50 of competitor peptide to IC50 of reference peptide; mean of at least two independent experiments; less than 100 = active
T1 sequence (P04440 30-258): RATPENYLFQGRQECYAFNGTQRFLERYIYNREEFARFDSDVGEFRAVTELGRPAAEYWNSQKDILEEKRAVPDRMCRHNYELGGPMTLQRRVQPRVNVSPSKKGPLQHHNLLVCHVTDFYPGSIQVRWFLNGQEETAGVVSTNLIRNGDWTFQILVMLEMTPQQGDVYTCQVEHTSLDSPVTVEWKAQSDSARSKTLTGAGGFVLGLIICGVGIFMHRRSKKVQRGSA
T1 sequence (P20036 29-260): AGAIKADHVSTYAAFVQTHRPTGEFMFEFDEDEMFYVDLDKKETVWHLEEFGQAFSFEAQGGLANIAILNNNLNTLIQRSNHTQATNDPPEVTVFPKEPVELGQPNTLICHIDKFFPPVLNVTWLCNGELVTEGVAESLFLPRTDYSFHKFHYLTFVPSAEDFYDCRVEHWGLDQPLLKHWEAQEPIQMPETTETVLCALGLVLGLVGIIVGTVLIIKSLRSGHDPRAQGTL

[11] = system: 12 predominant HLA II molecules; assay: HLA II/peptide binding assays, count over the panel; design: species or system human; details: relative activity of less than 100 characterizes the active peptides
Text: The assays for binding to HLA II molecules are competition binding assays with immunoenzymatic visualization, as described in U.S. Pat. No. 6,649,166 and PCT international application WO 03/040299, respectively, for the HLA-DR and HLA-DP4 molecules. The implementation of these assays for measuring the binding activity of peptides derived from various antigens is illustrated in U.S. Pat. No. 6,649,166 and PCT international applications WO 02/090382, WO 03/040299 and WO 2004/014936.
The sensitivity of each test is reflected by the IC50 values observed with the nonbiotinylated peptides which correspond to the tracers. […] The results are expressed in the form of relative activity (ratio of the IC50 of the competitor peptide to that of the reference peptide (nonbiotinylated peptide which corresponds to the tracer)). A relative activity of less than 100 characterizes the active peptides.

[12] = biological target: T2, HLA-DP402 (DPB1*0402) (Homo sapiens, UniProt P04440+P20036, A65V/A84D/A85E/L207M); assay type: binding; details: ratio of IC50 of competitor peptide to IC50 of reference peptide; mean of at least two independent experiments; less than 100 = active
T2 sequence (P04440 30-258 A65V/A84D/A85E): T1 sequence (P04440 30-258) with A36V, A55D, A56E
T2 sequence (P20036 29-260): T1 sequence (P20036 29-260)

[13] = biological target: HLA-DR11 (DRB1*1101) (Homo sapiens, UniProt P01903+P01911, A100R/A169T/A87E/I96F/K41T/L162R/M171V/P40S/Q125H/Q178H/Q39Y/Q99D/R42S/S66Y/T262R/V115G/W38E); assay type: binding; details: ratio of IC50 of competitor peptide to IC50 of reference peptide; mean of at least two independent experiments; less than 100 = active

Row | Substance | Relative binding activity, DR1 [1] | Relative binding activity, DR3 [2] | Relative binding activity, DR4 [3] | Relative binding activity, DR7 [4] | Relative binding activity, DR13 [5] | Relative binding activity, DR15 [6] | Relative binding activity, DRB3 [7] | Relative binding activity, DRB4 [8] | Relative binding activity, DRB5 [9] | Relative binding activity, DP401 [10] | Total (number of the 12 predominant HLA II molecules bound) [11] | Relative binding activity, DP402 [12] | Relative binding activity, DR11 [13]
1 | A E W A W G P C T P S S K D C (AEWAWGPCTPSSKDC) [MDK 38-52] | 1 305 | >419 | 1 859 | >2 479 | >2 537 | >529 | >485 | >28 868 | >2 100 | >879 | 0 | – | –
2 | C G V G F R E G T C G A Q T Q (CGVGFREGTCGAQTQ) [MDK 52-64] | – | >419 | – | >2 479 | >2 537 | >529 | >485 | >28 868 | >2 100 | >879 | 1 | >976 | –
3 | K E F G A D C K Y K F E N W G (KEFGADCKYKFENWG) [MDK 78-92] | 299 | – | – | >2 479 | >2 537 | 216 | – | >28 868 | – | – | – | – | –
4 | G T K V R Q G T L K K A R Y N (GTKVRQGTLKKARYN) [MDK 99-113] | 3 000 | >419 | >1 812 | >2 479 | – | >529 | >485 | >28 868 | – | >879 | 1 | >976 | >1 086
5 | Q T Q R I R C R V P C N W K K (QTQRIRCRVPCNWKK) [MDK 64-78] | 246 | >419 | – | 2 066 | >2 537 | >529 | >485 | 1 155 | – | >879 | 1 | >976 | –
